Laboratory results from US20170072062A1 (published 2017).
Values belong to the binder of their own block, whether it stands above or below them. Ends that are not written are not given here. * marks the point of attachment. Methacryloyl = C=C(C)C(=O)*

What was measured:
[1] = biological target: type V tartrate-resistant acid phosphatase (TRAP) protein, immobilised on CM5 sensor chip; assay: SPR, TRAP on CM5 chip, initial rate analysis of sensorgrams
[2] = biological target: type V tartrate-resistant acid phosphatase (TRAP) protein, immobilised on CM5 sensor chip; assay: SPR, TRAP on CM5 chip, steady-state response vs concentration fit
[3] = biological target: type V tartrate-resistant acid phosphatase (TRAP) protein, immobilised on CM5 sensor chip; assay: SPR, TRAP on CM5 chip, binding curve fit
[4] = biological target: type V tartrate-resistant acid phosphatase (TRAP) protein, immobilised on CM5 sensor chip; assay: SPR, TRAP on CM5 chip, binding curve fit (n = 2, Ave. ± StDev)
[5] = biological target: T1, TRAP deposited by previous osteoclast activity on human cortical bone wafers (human, UniProt P13686 22-325, limits assumed); assay: confocal imaging of fluorescent peptide on human cortical bone wafers decorated with TRAP
T1 construct: The target is TRAP on a bone surface, not purified protein; The species follows from the human donor bone; also called bone resorption pits
T1 sequence (looked up): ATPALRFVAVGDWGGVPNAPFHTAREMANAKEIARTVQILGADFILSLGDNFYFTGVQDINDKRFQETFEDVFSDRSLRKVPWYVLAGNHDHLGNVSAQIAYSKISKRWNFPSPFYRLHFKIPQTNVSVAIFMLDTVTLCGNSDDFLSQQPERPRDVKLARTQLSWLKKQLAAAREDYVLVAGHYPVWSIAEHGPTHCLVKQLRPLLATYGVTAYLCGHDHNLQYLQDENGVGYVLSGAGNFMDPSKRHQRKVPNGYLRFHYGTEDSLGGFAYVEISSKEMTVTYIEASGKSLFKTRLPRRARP
Procedure: Equal concentrations of fluorescently labeled TBP and SCP are prepared in 1× phosphate-buffered saline (PBS). Bone wafers are cut from cortical bone obtained from the femur of a human donor cadaver and incubated in peptide solutions overnight, washed twice with 1×PBS, and then visualized via confocal imaging. Stacked sections are compressed into 2D images to allow for qualitative analysis as in FIG. 3A through FIG. 3D.

[6] = biological target: type V tartrate-resistant acid phosphatase (TRAP) protein, immobilised on CM5 sensor chip; assay: SPR, TRAP on CM5 chip; lower end of a range told of the peptide-functionalized polymers
[7] = biological target: type V tartrate-resistant acid phosphatase (TRAP) protein, immobilised on CM5 sensor chip; assay: SPR, TRAP on CM5 chip; upper end of a range told of the peptide-functionalized polymers

Kd [1]: 70 µM
B1: 20% TBP-functionalized PEG polymer, M:CTA:I 500:1:0.1, Mn 32.7 kDa (Table 4) (peptide)
peptide: Methacryloyl-TPLSYLKGLVTVG
modifications: not fully specified; also: RAFT copolymer with PEG methyl ether methacrylate, about 12 peptides per chain

Kd [1]: 70 µM
B2: 5% TBP-functionalized PEG polymer, M:CTA:I 125:1:0.1, Mn 17.1 kDa (Table 4) (peptide)
peptide: Methacryloyl-TPLSYLKGLVTVG
modifications: not fully specified; also: RAFT copolymer with PEG methyl ether methacrylate, about 3 peptides per chain

Kd [2]: 200 µM
Kd [3]: 700 µM
Kd [4]: 795 µM
Binder: TPLSYLKGLVTVG [TRAP-binding peptide (TBP)]

Kd [1]: 60 µM
B3: 10% TBP-functionalized polymer (pTBP), M:CTA:I 300:1:0.1, Mn 40.1 kDa (Table 4) (peptide)
peptide: Methacryloyl-TPLSYLKGLVTVG
modifications: not fully specified; also: RAFT copolymer with PEG methyl ether methacrylate, about 9 peptides per chain

binding result [5]: no binding
B4: fluorescently labeled scrambled control peptide (SCP) (peptide)
peptide: VPVGTLSYLKLTG
modifications: also: fluorescent cadaverine coupled, site not given here
notes: also called fluorescently labeled SCP; Control (SCP)

Kd [1]: 140 µM
B5: 5% TBP-functionalized PEG polymer, M:CTA:I 600:1:0.1, Mn 98.2 kDa (Table 4) (peptide)
peptide: Methacryloyl-TPLSYLKGLVTVG
modifications: not fully specified; also: RAFT copolymer with PEG methyl ether methacrylate, about 11 peptides per chain

Kd [1]: 80 µM
B6: 5% TBP-functionalized PEG polymer, M:CTA:I 250:1:0.1, Mn 42.3 kDa (Table 4) (peptide)
peptide: Methacryloyl-TPLSYLKGLVTVG
modifications: not fully specified; also: RAFT copolymer with PEG methyl ether methacrylate, about 5 peptides per chain

Kd [6]: 7.1 to 21 µM
Kd [4]: 7.5 µM
Binder: Methacryloyl-TPLSYLKGLVTVG (also: RAFT copolymer with PEG monomethyl ether methacrylate, multivalent) [20% peptide monomer TBP-functionalized PEG polymer (Table 1, Mn 26700 Da)]

Kd [7]: 7.1 to 21 µM
Kd [4]: 21.7 µM
Binder: Methacryloyl-TPLSYLKGLVTVG (also: RAFT copolymer with PEG monomethyl ether methacrylate, multivalent) [5% peptide monomer TBP-functionalized PEG polymer (Table 1, Mn 103900 Da)]

Kd [4]: 12.7 µM
Binder: Methacryloyl-TPLSYLKGLVTVG (also: RAFT copolymer with PEG monomethyl ether methacrylate, multivalent) [10% peptide monomer TBP-functionalized PEG polymer (Table 1, Mn 69000 Da)]
